Data published in patent US20230203146A1 (Boehringer Ingelheim, published 2023).

T1: N-terminally FLAG-tagged cynomolgus Ang2 (HEK293T conditioned medium) (cynomolgus, UniProt O15123 19-496 (human entry), limits assumed)
T1 construct: may be a nucleotide entry; also called cAng2; FLAG-cAng2
T1 chain: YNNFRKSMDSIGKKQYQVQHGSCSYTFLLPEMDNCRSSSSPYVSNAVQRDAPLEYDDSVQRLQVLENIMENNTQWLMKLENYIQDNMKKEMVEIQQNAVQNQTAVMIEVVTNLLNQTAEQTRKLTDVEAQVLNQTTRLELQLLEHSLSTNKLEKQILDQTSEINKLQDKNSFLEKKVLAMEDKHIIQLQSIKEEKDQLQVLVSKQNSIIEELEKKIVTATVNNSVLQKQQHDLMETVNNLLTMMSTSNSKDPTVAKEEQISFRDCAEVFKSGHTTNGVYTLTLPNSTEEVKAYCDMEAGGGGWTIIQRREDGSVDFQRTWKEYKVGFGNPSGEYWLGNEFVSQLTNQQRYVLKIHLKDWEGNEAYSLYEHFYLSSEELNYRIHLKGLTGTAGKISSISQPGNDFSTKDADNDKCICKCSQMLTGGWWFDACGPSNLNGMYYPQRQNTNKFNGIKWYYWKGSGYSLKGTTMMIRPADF

T2: N-terminally FLAG-tagged mouse Ang2 (HEK293T conditioned medium) (mouse, UniProt O35608 19-496)
T2 construct: may be a nucleotide entry; also called mAng2; FLAG-mAng2
T2 sequence: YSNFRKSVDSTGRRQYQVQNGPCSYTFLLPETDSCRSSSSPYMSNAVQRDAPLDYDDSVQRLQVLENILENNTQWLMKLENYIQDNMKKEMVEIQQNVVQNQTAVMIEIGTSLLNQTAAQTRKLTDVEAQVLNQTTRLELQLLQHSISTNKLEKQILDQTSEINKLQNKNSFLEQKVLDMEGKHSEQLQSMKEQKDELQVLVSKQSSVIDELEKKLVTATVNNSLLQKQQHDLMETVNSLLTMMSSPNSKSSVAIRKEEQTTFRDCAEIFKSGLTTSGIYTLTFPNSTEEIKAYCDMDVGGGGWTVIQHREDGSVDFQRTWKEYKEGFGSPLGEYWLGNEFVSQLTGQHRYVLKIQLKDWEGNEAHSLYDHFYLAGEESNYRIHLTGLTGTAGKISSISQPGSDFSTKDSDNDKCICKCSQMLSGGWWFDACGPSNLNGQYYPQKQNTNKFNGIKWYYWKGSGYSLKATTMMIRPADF

T3: recombinant human Ang2-FLD (human, UniProt O15123 275-496, limits assumed)
T3 construct: domain: FLD; not used
T3 sequence (looked up): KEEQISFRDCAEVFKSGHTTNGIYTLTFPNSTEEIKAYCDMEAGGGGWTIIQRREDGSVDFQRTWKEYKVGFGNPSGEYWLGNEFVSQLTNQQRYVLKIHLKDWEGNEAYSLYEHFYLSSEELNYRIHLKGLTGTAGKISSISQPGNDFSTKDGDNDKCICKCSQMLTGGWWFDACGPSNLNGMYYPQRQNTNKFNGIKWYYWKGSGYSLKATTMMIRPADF

T4: recombinant mouse Ang2-FLD (mouse, UniProt O35608 275-496, limits assumed)
T4 construct: domain: FLD
T4 sequence (looked up): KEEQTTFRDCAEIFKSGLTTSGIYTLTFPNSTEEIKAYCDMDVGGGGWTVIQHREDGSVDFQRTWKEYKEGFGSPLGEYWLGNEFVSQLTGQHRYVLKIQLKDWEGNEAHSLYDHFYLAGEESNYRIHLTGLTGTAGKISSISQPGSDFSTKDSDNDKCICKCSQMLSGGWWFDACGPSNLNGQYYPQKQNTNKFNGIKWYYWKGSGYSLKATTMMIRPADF

T5: FLAG-tagged recombinant human Ang1 (Alexis Biochemicals) (human, UniProt Q15389 20-498, limits assumed)
T5 construct: Bought reagent; also called hAng1; FLAG-hAng1
T5 sequence (looked up): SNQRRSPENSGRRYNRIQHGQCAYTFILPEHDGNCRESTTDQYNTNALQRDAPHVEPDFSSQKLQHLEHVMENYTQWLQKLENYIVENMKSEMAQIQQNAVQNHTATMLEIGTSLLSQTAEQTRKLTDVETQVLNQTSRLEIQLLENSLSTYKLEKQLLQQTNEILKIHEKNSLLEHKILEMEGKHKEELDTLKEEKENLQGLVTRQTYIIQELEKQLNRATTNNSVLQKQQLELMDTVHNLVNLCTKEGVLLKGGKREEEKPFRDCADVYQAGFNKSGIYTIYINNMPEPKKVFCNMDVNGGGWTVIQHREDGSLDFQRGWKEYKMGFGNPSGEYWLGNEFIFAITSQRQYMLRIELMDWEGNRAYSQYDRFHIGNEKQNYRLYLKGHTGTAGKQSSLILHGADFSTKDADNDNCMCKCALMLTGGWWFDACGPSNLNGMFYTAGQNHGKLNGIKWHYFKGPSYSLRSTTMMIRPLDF


Tests used:
[1] = molecular target: T1, N-terminally FLAG-tagged cynomolgus …; experiment: competition ELISA, FLAG-cAng2 on coated cTie2-Fc
Method: (§1) In brief, 2 μg/mL of recombinant mouse Tie2-Fc or cyno Tie2-Fc is coated overnight at 4° C. in a 96-well MaxiSorp plate (Nunc, Wiesbaden, Germany). Coated wells are blocked with a 1% casein solution.

[2] = molecular target: T2, N-terminally FLAG-tagged mouse Ang2 …; experiment: competition ELISA, FLAG-mAng2 on coated mTie2-Fc
Method: as §1

[3] = molecular target: T6, recombinant cynomolgus Ang2-FLD (cynomolgus); experiment: SPR (Biacore T100), binder on CM5 chip, Ang2-FLD as analyte
T6 construct: domain: FLD; also called cyno Ang2-FLD
Method: (§2) In brief, VHH and benchmark compounds are immobilized on a CM5 chip via amine coupling. […] Ang2-FLD species are allowed to associate for 2 min and to dissociate for 20 min at a flow rate of 45 μL/min. In between injections, the surfaces are regenerated with a 10 sec pulse of 25 mM NaOH and 60 sec stabilization period. Association/dissociation data are evaluated by fitting a 1:1 interaction model (Langmuir binding). The affinity constant KD is calculated from resulting association and dissociation rate constants kₐ and kd and are depicted in Table 8.

[4] = molecular target: T3, recombinant human Ang2-FLD; experiment: as above
Method: as §2

[5] = molecular target: T4, recombinant mouse Ang2-FLD; experiment: as above
Method: as §2

[6] = molecular target: T5, FLAG-tagged recombinant human Ang1 …; experiment: competition ELISA, periplasmic extract, FLAG-hAng1 on hTie2/Fc
Method: (§3) In brief, human Tie2/Fc chimera (R&D Systems, Minneapolis, Minn., USA) is biotinylated using N-hydroxysulfosuccinimide ester of biotin (Thermo Fisher Scientific, Rockford, Ill., USA). […] To this mixture, the Acceptor beads and 0.3 nM biotinylated human Tie2/Fc chimeras are added and further incubated for 2 hours at room temperature. Finally, streptavidin conjugated Donor beads (Perkin Elmer, Waltham, Mass., US) are added and the mixture is incubated for an additional 2 hours at room temperature. Assay buffer is PBS+0.03% Tween-20+0.1% BSA. Fluorescence is measured using the Envision Multilabel Plate reader (Perkin Elmer, Waltham, Mass., USA) using an excitation wavelength of 680 nm and an emission wavelength of 520 nm. […] In brief, human or mouse Tie2/Fc chimera (R&D Systems, Minneapolis, Minn., USA) are immobilized at 2 μg/mL overnight at 4° C. in a 96-well MaxiSorp plate (Nunc, Wiesbaden, Germany). Wells are blocked with a 1% casein solution. […] This mixture is added to the Tie2/Fc coated well and incubated for 2 hours at room temperature. Residual binding of Ang is detected using HRP-conjugated anti-FLAG M2 antibody (Sigma, St Louis, Mo., USA).

[7] = molecular target: T2, N-terminally FLAG-tagged mouse Ang2 …; experiment: competition ELISA, periplasmic extract, FLAG-mAng2 on mTie2/Fc
Method: as §3

[8] = molecular target: T5, FLAG-tagged recombinant human Ang1 …; experiment: ratio of IC50 in hAng1/hTie2 ELISA to IC50 in hAng2/hTie2 ELISA
Method: In brief, 2 μg/mL of Tie2/Fc chimera (R&D Systems, Minneapolis, Minn., USA) is coated in a 96-well MaxiSorp plate (Nunc, Wiesbaden, Germany).
In brief, 2 μg/mL of recombinant human Tie2-Fc (R&D Systems, Minneapolis, Minn., USA) is coated overnight at 4° C. in a 96-well MaxiSorp plate (Nunc, Wiesbaden, Germany). Coated wells are blocked with a 1% casein solution.

[9] = molecular target: T3, recombinant human Ang2-FLD; experiment: ProteOn off-rate assay, periplasmic extracts over coated human Ang2-FLD
Method: In a first cycle, amino acid substitutions are introduced randomly in both framework (FW) and complementary determining regions (CDR) using the error-prone PCR method. […] After a polish step, PCR products are inserted via unique restriction sites into a vector designed to facilitate phage display of the VHH library. […] Periplasmic extract of affinity matured clones is diluted 1:10 and injected across the “analyte channels” A1-A6.

IC50 [1]	IC50 [2]	Kd [3]	koff [3]	kon [3]	Kd [4]	koff [4]	kon [4]	Kd [5]	koff [5]	kon [5]	% inh [6]	% inh [7]	hAng1/hAng2 ratio [8]	fold improvement (off-rate against VHH 00027) [9]	Binder
2 nM	6.1 nM	1.4 nM	0.025 s⁻¹	1.8e+07 M⁻¹ s⁻¹	1.3 nM	0.0062 s⁻¹	4.9e+06 M⁻¹ s⁻¹	5.6 nM	0.011 s⁻¹	1.9e+06 M⁻¹ s⁻¹	4%	93%	> 3080		VHH 28D10 (VHH, also called 028D10; not shown: C-terminal c-myc tag and His6 tag) VHH: EVQLVESGGGLVQAGGSLRLSCAASGFTLDDYAIGWFRQAPGKEREGVSCIRDSDGSTYYADSVKGRFTISSDNDKNTVYLQMNSLKPEDTAVYYCAAVPAGRLRFGEQWYPLYEYDAWGQGTQVTVSS
														9.4 fold	variant(s) of VHH 00027 carrying F27L and L100iI (VHH, also called L100il) VHH: EVQLVESGGGLVQAGGSLRLSCAASGLTLDDYAIGWFRQAPGKEREGVSSIRDNDGSTYYADSVKGRFTISSDNDKNTVYLQMNSLKPEDTAVYYCAAVPAGRLRFGEQWYPIYEYDAWGQGTLVTVSS
														2 fold	variant(s) of VHH 00027 carrying A24V (VHH, name in Kabat numbering, not shown: C-terminal c-myc tag and His6 tag) VHH: EVQLVESGGGLVQAGGSLRLSCAVSGFTLDDYAIGWFRQAPGKEREGVSSIRDNDGSTYYADSVKGRFTISSDNDKNTVYLQMNSLKPEDTAVYYCAAVPAGRLRFGEQWYPLYEYDAWGQGTLVTVSS
